Changes are numbered by the printed parent chain.
T1: botulinum neurotoxin serotype E (BoNT/E) (UniProt Q00496 2-1251)
T1 sequence: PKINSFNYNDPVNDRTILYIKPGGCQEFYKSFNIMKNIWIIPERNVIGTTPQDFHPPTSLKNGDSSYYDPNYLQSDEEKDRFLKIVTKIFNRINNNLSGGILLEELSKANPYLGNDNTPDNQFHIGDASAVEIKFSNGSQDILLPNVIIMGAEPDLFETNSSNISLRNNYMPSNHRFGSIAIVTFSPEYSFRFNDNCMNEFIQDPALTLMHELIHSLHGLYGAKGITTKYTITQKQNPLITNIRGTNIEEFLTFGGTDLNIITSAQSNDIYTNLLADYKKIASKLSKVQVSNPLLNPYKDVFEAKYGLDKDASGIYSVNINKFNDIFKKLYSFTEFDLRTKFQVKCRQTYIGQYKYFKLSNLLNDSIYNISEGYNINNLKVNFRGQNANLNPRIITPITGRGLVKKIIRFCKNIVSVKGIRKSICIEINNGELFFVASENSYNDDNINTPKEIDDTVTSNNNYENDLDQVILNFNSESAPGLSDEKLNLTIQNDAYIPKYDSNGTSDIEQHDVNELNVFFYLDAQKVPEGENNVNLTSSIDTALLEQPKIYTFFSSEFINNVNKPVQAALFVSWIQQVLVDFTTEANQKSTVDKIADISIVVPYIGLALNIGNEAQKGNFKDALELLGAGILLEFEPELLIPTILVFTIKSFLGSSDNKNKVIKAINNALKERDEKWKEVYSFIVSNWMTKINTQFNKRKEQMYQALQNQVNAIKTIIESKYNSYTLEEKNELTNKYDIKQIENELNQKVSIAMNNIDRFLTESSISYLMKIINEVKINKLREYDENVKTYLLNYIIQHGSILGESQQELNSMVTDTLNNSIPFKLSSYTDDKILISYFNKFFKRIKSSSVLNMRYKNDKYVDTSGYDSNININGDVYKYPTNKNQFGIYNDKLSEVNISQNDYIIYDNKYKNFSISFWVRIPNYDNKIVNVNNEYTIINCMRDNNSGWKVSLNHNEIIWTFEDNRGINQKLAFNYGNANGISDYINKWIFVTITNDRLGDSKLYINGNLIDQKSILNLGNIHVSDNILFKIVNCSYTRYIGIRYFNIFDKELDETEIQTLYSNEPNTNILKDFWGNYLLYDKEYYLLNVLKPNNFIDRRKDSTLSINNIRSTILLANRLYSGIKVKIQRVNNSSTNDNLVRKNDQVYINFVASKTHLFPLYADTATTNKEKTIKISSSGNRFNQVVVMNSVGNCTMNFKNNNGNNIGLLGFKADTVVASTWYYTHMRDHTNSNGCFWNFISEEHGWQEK

T2: botulinum neurotoxin serotype B (BoNT/B) (UniProt P10844 2-1291)
T2 sequence: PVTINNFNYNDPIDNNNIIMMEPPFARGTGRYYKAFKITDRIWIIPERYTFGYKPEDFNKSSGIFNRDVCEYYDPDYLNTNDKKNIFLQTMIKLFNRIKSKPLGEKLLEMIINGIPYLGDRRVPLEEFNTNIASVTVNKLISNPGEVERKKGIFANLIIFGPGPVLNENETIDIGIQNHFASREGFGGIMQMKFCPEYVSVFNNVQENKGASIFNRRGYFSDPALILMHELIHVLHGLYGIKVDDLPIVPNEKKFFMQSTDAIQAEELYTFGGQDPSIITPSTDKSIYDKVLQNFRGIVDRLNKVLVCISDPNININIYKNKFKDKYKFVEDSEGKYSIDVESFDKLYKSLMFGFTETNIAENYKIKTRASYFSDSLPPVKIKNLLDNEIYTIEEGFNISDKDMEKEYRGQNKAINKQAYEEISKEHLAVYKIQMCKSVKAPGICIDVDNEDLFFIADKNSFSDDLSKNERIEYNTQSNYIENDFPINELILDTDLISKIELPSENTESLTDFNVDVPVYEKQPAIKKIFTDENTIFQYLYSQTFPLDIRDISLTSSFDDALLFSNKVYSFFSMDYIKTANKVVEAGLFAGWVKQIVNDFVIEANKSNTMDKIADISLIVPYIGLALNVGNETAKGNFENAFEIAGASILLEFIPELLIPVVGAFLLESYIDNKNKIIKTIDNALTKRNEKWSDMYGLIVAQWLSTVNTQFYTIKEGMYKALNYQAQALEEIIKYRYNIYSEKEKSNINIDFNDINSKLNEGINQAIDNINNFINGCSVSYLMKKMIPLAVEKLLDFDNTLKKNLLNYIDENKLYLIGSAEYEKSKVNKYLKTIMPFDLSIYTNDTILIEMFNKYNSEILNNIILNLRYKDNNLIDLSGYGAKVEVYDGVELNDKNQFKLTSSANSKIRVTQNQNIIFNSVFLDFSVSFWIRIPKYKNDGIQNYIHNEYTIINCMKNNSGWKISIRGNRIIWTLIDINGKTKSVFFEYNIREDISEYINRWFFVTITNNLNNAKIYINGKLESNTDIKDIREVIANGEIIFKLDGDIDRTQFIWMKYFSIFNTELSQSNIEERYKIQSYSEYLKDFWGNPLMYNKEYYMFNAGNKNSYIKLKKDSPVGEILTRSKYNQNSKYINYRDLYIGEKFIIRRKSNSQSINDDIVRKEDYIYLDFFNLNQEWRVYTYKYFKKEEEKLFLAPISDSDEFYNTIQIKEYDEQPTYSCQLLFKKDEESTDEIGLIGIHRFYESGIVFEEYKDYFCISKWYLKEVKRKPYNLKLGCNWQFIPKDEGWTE

T3: botulinum neurotoxin serotype C (BoNT/C) (UniProt P18640 2-1291)
T3 sequence: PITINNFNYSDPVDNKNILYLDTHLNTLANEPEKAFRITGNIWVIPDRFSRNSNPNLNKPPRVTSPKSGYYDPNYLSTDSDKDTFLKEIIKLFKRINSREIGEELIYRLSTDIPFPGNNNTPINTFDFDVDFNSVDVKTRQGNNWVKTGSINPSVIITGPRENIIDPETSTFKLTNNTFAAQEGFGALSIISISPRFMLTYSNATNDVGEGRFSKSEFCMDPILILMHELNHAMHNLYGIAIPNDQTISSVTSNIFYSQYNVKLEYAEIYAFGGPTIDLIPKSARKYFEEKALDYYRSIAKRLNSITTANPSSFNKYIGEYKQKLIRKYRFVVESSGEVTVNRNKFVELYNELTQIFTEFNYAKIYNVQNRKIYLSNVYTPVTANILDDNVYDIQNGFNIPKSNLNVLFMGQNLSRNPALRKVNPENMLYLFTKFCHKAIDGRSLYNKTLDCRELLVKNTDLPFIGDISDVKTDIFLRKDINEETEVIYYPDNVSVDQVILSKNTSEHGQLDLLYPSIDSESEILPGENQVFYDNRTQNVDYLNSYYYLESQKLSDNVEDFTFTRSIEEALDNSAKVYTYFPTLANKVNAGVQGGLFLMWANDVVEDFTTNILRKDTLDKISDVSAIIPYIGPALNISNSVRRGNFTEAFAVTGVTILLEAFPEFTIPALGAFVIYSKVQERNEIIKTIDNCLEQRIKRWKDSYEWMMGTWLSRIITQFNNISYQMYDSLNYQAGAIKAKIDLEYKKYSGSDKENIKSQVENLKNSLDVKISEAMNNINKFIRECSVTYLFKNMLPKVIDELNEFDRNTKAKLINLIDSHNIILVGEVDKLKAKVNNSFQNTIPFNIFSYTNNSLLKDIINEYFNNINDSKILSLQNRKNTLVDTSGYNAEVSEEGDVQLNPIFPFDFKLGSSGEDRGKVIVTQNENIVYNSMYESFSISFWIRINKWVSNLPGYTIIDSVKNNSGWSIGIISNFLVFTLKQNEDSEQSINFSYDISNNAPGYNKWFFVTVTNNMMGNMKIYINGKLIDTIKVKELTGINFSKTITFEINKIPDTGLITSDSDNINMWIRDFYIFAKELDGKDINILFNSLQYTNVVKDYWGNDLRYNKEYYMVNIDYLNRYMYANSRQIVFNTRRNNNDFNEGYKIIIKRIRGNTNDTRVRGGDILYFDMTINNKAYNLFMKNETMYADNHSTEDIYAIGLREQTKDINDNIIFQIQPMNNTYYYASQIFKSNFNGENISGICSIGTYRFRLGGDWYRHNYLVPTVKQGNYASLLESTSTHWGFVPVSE

B1: 3D12 (wild type, as tested in Table 12) (antibody, V domains shown)
VH: QVQLVQSGGGVVHPGRSLKLSCAGSGFTFSDYDMHWVRQAPGKGLEWVAVMWFDGTEKYSAESVKGRFTISRDNSKNTLFLQMNSLRADDTAVYYCAREPDWLLWGDRGALDVWGQGTTVTVSS
VL: DIVMTQSPSTLSASVGDRVTITCRASQSISSWLAWYQQKPGKAPKLLMYEASSLESGVPSRFSGSGSGTEFTLTISSLQPDDFAAYYCQHYNTYPYTFGQGTKLEIKR
B2: scFv 3D12 (human, immune library) (scFv, V domains shown)
VH: B1 VH
VL: B1 VL
B3: 3D12.3-10 (antibody, V domains shown)
VH: B1 VH with L45F, W102R
VL: B1 VL with E55G, S56R, N92S
B4: 3D12.3-8 (antibody, V domains shown)
VH: B1 VH with M51I
VL: B1 VL with E50G, E55G, Q79H
B5: 3D12.3-1 (RAZ1) (antibody, V domains shown)
VH: B1 VH
VL: B1 VL with R24W, W32R, S52T, E55G, N92D
B6: AR2 (affinity improved HuC25) (antibody, V domains shown)
VH: QVQLQESGGGLVQPGGSLRLSCAASGFTFSDHYMYWVRQAPGKGLEWVATISDGGSYTYYPDSVKGRFTTSRDNSKNTLYLQMNSLRAEDTAIYYCSRYRYDDAMDYWGQGTLVTVSS
VL: EIVLTQSPATLSLSPGERATISCRASESVDSYGHSFMQWYQQKPGQAPRLLIYRASNLEPGIPARFSGSGSGTDFTLTISSLEPEDFAVYYCQQGNEVPFTFGQGTKVEIKR
B7: AR1 (affinity improved HuC25) (antibody, V domains shown)
VH: B6 VH with H32Y, T70I
VL: B6 VL
B8: Humanized C25 (HuC25) (antibody, V domains shown)
VH: B6 VH with H32Y, T70I, I93M
VL: B6 VL with G95S, V98D
B9: WR1(V) (HuC25 derivative) (antibody, V domains shown)
VH: B6 VH with F29S, T70V
VL: B6 VL
B10: WR1(T) (HuC25 derivative) (antibody, V domains shown)
VH: B6 VH with F29S
VL: B6 VL

Assays:
Honey (A2) toxin [1] = target: T4, Honey (A2) toxin (UniProt Q45894 2-1296)
T4 sequence (Q45894 2-1296): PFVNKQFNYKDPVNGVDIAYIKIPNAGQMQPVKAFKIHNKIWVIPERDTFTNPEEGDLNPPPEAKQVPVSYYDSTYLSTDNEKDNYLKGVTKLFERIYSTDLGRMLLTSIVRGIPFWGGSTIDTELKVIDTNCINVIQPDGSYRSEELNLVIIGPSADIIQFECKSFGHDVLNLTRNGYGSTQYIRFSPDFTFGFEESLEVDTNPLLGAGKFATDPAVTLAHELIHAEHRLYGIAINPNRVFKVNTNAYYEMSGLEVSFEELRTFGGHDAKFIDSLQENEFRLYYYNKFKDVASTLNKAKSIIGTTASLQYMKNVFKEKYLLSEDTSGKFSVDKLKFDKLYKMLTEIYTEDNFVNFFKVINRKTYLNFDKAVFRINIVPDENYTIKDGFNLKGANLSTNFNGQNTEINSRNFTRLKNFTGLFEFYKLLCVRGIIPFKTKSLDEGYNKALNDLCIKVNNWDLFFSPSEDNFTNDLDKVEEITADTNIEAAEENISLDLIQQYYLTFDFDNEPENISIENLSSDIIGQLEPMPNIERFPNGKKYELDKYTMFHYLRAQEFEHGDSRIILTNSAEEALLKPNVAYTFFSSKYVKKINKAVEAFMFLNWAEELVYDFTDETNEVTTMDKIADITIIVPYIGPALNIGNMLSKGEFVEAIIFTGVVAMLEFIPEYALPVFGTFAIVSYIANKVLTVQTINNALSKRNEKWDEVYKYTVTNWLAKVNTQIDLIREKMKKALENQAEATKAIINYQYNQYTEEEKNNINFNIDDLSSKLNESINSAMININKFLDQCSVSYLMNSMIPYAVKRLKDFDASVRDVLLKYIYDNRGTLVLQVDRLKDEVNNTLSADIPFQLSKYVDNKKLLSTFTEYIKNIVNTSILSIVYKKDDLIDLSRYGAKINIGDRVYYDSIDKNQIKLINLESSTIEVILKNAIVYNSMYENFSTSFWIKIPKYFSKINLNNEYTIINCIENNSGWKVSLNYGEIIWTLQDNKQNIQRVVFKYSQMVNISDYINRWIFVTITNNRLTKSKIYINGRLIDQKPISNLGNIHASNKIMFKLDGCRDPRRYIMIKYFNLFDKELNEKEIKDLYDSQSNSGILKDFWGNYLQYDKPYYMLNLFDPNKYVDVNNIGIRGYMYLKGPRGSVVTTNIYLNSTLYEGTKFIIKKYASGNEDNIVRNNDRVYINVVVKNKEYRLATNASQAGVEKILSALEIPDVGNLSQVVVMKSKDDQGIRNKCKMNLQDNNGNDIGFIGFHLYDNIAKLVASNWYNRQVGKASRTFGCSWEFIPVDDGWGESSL

Hall (A1) toxin [2] = target: T5, Hall (A1) toxin (UniProt P0DPI0 2-1296)
[3] = target: T1, botulinum neurotoxin serotype E (BoNT/E); experiment: ELISA, antigen coated at 10 µg/ml
[4] = target: T2, botulinum neurotoxin serotype B (BoNT/B); experiment: ELISA, antigen coated at 10 µg/ml
[5] = target: BoNT/A HN, recombinant translocation domain of botulinum neurotoxin serotype A (Clostridium botulinum, UniProt P0DPI0 449-870); experiment: ELISA, antigen coated at 10 µg/ml
[6] = target: T3, botulinum neurotoxin serotype C (BoNT/C); experiment: ELISA, antigen coated at 10 µg/ml
Honey (A2) toxin [7] = target: T4, Honey (A2) toxin; remark: listed apart in the source
Hall (A1) toxin [8] = target: T5, Hall (A1) toxin; remark: listed apart in the source

| Binder | Kd (Honey (A2) toxin [1]) | Kd (Hall (A1) toxin [2]) | fold tighter binding than wild type 3D12 (Honey (A2) toxin [7]) | fold tighter binding than wild type 3D12 (Hall (A1) toxin [8]) | further results |
| --- | --- | --- | --- | --- | --- |
| B1 | 2.2 nM | 0.94 nM | – | – | – |
| B2 | – | – | – | – | binding result [3]: no binding; binding result [4]: no binding; binding result [5]: no binding; binding result [6]: no binding |
| B3 | 0.081 nM | 0.028 nM | > 10 fold | > 10 fold | – |
| B4 | 0.067 nM | 0.021 nM | > 10 fold | > 10 fold | – |
| B5 | 0.07 nM | 0.017 nM | > 10 fold | > 10 fold | – |
| B6 | – | 0.047 nM | – | – | – |
| B7 | 100 nM | 0.2 nM | – | – | – |
| B8 | 250 nM | 1.24 nM | – | – | – |
| B9 | 9 nM | 0.45 nM | – | – | – |
| B10 | 3.7 nM | 0.31 nM | – | – | – |
